The experiment addresses Soluble, trimeric spike of SARS-CoV-2/human/China/Wuhan-Hu-1/2019 (residues 1-1204, 6 proline mutations) (SARS-CoV-2) (UniProt P0DTC2). Kind of experiment: SEC. (SEC sorts molecules by how far they enter the pores of the column.)

The source of these data is article doi:10.1101/2022.12.27.521990.

Usually stoichiometry N stands for a count of units in the complex or per binding partner. Substance “Soluble, trimeric spike of SARS-CoV-2/human/China/Wuhan-Hu-1/2019 (residues 1-1204, 6 proline mutations) (from UniProt P0DTC2 14-1204) (domain or fragment)” gave a stoichiometry N of 3.
